System: MS2 coat protein
Assay: apparent KD of MS2 coat protein; designed switch direction (-1 OFF switch, 1 ON switch): -1; higher = weaker reporter binding
Summary of the method: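 Normalised cluster fluorescence was curve-fitted, and each design's median over clusters is its apparent KD. Before this, SNAP-549-labelled MS2 coat protein was titrated from 0.7 or 1.5 nM, doubling to 3 µM, over RNA switches transcribed on Illumina chips by stalled E. coli RNA polymerase. Titrations had no input, 200 uM small-molecule ligand, or an oligonucleotide input, and steps lasted 0.8–1.5 h (lowest) to 10–20 min (highest).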

[1] = Eterna round: R95, input ligand: FMN 200 uM
[2] = Eterna round: R95, input ligand: microRNA oligo, concentration not stated
[3] = Eterna round: R95, input ligand: none
[4] = input ligand: microRNA oligo, concentration not stated

Sequence | apparent KD of MS2 coat protein (input ligand: FMN 200 uM) | apparent KD of MS2 coat protein (input ligand: none) | apparent KD of MS2 coat protein [1] | apparent KD of MS2 coat protein [2] | apparent KD of MS2 coat protein [3] | apparent KD of MS2 coat protein [4]
UGAUUGUUUACCAGAUUAUACAUGAGGAUCACCCAUGUAGAUCCUACGUGCACGUUAUGCAGCUCGUCUUAUUCCCA [Sensor-V1 #73] (Eterna round: R97, puzzle: Sensor, turn-off variant 1) | 40.3 nM | 44.1 nM |  |  |  | 
GCACGACAUGAGGAUCACCCAUGUGAGGAUAUUUAGACGCCUGUGAAUGCAGCCAUUUAGAGAAGGCAUUGGGU [Eternabot (L1) Solution 99] (Eterna round: R97, puzzle: Exclusion 1) | 129 nM | 43.9 nM |  |  |  | 
GGUUGGCGAGGAUAUACAUGAGGAUCACCCAUGUGAGAGAAAGAAGUGAGAACGAAAAGUAGAAGGCGCUGACG [salish99_ex3_r3_058] (puzzle: Exclusion 3) |  |  | 48.1 nM | 65.8 nM | 66.1 nM | 
GGUGGACAUGAGGAUCACCCAUGUGAGGAUAUCGGCCGGUUCGUGGUGGCUGGCCUCUCGAGAAGGCGCAUAGU [Exclusion 1 V73] (puzzle: Exclusion 1) |  |  |  | 44.1 nM |  | 
GCACGGAUCGUAGGAUAUCAUUGCGAUUAGCUAUGAGAAGGACGACAUGAGGAUCACCCAUGUCCUCUAAUUAGCCUUCCGUGC [Eli exng1 - 017] (Eterna round: R96, puzzle: Exclusion NG 1) | 52.9 nM | 38.5 nM |  |  |  | 21.8 nM
CUGCUCCGUGUAGGAUAUGCCCGCACCACCCGGGCAGAAGGACAUGAGGAUCACCCAUGUAUGUUAUUAUCACGUGUGGCGCGC [Design 39] (Eterna round: R96, puzzle: Exclusion NG 1) | 23.7 nM | 16.4 nM |  |  |  | 11.7 nM
GGUGAAGCAGGAUAUGUAUCGAUAUACAUGAGGAUCACCCAUGUCAUGUAGAAACCGCAUAUAGAAGGGCUUCACC [Exclusion 5 (FMN-MS2 slide v.6)] (Eterna round: R97, puzzle: Exclusion 5) | 163 nM | 47.4 nM |  |  |  | 
UCCUUACAUGAGGAUCACCCAUGUCAGGAUAUCUCCACACUGCGCUUGCGCAGUGUAUAGAGAAGGGACGGGCU [JL ViennaUCT Aner mod 7] (puzzle: Exclusion 1) |  |  |  | 28.5 nM |  | 
GUCUUGAUAGGAUAUACAUGAGGAUCACCCAUGUCCCACCCGUUACCUCUGACCCUAUGUAGAAGGAUCGUCUG [Exy#18] (Eterna round: R97, puzzle: Exclusion 3) | 30.4 nM | 35.5 nM |  |  |  | 
AUAAAACAUGAGGAUCACCCAUGUGAGGAUAUACGACUCCAACCUAACAGCUUGGACCGUAGAAGGCACAAGGG [Exclusion 1 (MOD3.2 Esqu)] (Eterna round: R97, puzzle: Exclusion 1) | 137 nM | 159 nM |  |  |  | 
AUGGGUCCUCACGGAGCUACAUGAGGAUCACCCAUGUGGAUUGAGGAUAUCGUAACCCGACGGGACGAGAAGGCAGUUUACUGU [Ex NG3 #98] (Eterna round: R96, puzzle: Exclusion NG 3) | 63.1 nM | 29.4 nM |  |  |  | 23 nM
AGUACUACCACGAAAGUGUUAGUACAAUAAGCUUGUGAAACAUGAGGAUCACCCAUGUCCUCAUAAGCUCGUCUUAU [salish99_TOv2_r3_021] (puzzle: Sensor v3, turn-off variant 2) |  |  | 16.7 nM | 524 nM | 16.5 nM | 
AAGACACAUGAGGAUCACCCAUGUGAGGAUAUUCGAUGCUGAGCGUAAGCUUAGUAUCGGAGAAGGCACAUAGG [Salishxclusion 8 - Jieux - Exclusion 1] (Eterna round: R97, puzzle: Exclusion 1) | 203 nM | 251 nM |  |  |  | 
UUGAAGUCGUCAGGAUAUAGAUUUAAUGUCAUGCGUAUGUUCUUACAUGAGGAUCACCCAUGUCGCUAGAAGGGACUAUAGAUU [JR_ExcNG2_Sub008] (Eterna round: R96, puzzle: Exclusion NG 2) | 54.6 nM | 45.1 nM |  |  |  | 35.1 nM
UAUUAGCAAGCGAGAUCCCACAUGAGGAUCACCCAUGUGCUCGUCGCAUCCAGAAUUACUGGGUGCGCUCGUCUUAU [Winner reversed engineered 15] (Eterna round: R97, puzzle: Sensor, turn-off variant 1) | 23.8 nM | 23.7 nM |  |  |  | 
GAUAAUGAAGGAUAUACAGGCGGUCCGUGACUAGUCUUCAUACAUGAGGAUCACCCAUGUAGAAGGUCAAUGUU [Eternabot (L1) Solution 64] (Eterna round: R97, puzzle: Exclusion 2) | 23.3 nM | 14.4 nM |  |  |  | 
AAGGACUGAGGAUAUGCGCGGGCAAGAUCCUCAAUCCCAAAACAUGAGGAUCACCCAUGUAGAAGGCAGAAAUA [Tereenrion] (puzzle: Exclusion 2) |  |  |  | 23.4 nM |  | 

Sequence | apparent KD of MS2 coat protein (input ligand: FMN 200 uM) | apparent KD of MS2 coat protein (input ligand: none) | apparent KD of MS2 coat protein [1] | apparent KD of MS2 coat protein [2] | apparent KD of MS2 coat protein [3] | apparent KD of MS2 coat protein [4]
AAGAAACAUGAGGAUCACCCAUGUGAGGAUAUGAAGAAGAAAAGAAAAGAAAGAAGAAUCAGAAGGCACAAAGG [salish99-ex1_r3_046] (puzzle: Exclusion 1) |  |  | 67.1 nM | 25.8 nM | 48.4 nM | 
GGUUGGUGAGGAUAUACAUGAGGAUCACCCAUGUGAGAGAAAGAAGUGAGGAAGAAAAGUAGAAGGCGCUGACG [salish99_ex3_r3_054] (puzzle: Exclusion 3) |  |  | 87.1 nM | 40.4 nM | 54.2 nM | 
CCGAGGUAGCGGUCCUAUGACAUGAGGAUCACCCAUGUACCUCGCUACGAGCUUUUUGCUCGUCAUAUAAUUCUCGG [Mat - Sensor v3 - turn-off var 1 - JL Mod - D30] (Eterna round: R96, puzzle: Sensor v3, turn-off variant 1) | 56.8 nM | 61.3 nM |  |  |  | 49.7 nM
AAAGUUCGAGGAUAUCUACUUAGCUACAUGAGGAUCACCCAUGUUAUCCUCCCGCUGGGAAGAGAAGGCGGUUAAA [Xeonceso] (puzzle: Exclusion 5) |  |  | 186 nM | 41.7 nM | 41.7 nM | 
UCGAAGCUAGGAUAUACAUGAGGAUCACCCAUGUGAGUAAUAACUUGGAGAUACCUCCGUAGAAGGAGCACAAA [Beatdienat] (puzzle: Exclusion 3) |  |  | 310 nM | 107 nM | 125 nM | 
CAUUGUUAUCGAGGAUAUCGUAUUGAGAUUCUACGAGAAGGCGGACUAAACAUGAGGAUCACCCAUGUGAGACGGAUGCUUGGG [Ex NG1 #32] (Eterna round: R96, puzzle: Exclusion NG 1) | 36.7 nM | 25.7 nM |  |  |  | 22.3 nM
CAUGAUUGACGAGGAUAUUGUUCUACAUCACGACGAGAAGGCGUCUGUCACAUGAGGAUCACCCAUGUGAGUCUGGUGAAUGAG [Ex NG1 #82] (Eterna round: R96, puzzle: Exclusion NG 1) | 31 nM | 21.8 nM |  |  |  | 17.2 nM
UUGUUCCGUGUAGGAUAUUGGUCUCCCUCGGGCCGAGAAGGACAUGAGGAUCACCCAUGUAUGCUAUUAUCGCGCGUGGCGCAC [Design 93] (Eterna round: R96, puzzle: Exclusion NG 1) | 138 nM | 47.3 nM |  |  |  | 34.1 nM
CUCUCACAUGAGGAUCACCCAUGUUAGGAUAUUCCGUAGCGACUUACAAGAGGAGCAGGAAGAAGGAGCCUGGC [Eternabot (L1) Solution 40] (Eterna round: R97, puzzle: Exclusion 1) | 343 nM | 435 nM |  |  |  | 
GCGAAAGCAAAACAAGUGAACAUGAGGAUCACCCAUGUCCUCAUUUGCUCGUCUUAUAAGCUAUGCGAAAGCAUAGC [Sensor 3, v1 - 9] (puzzle: Sensor v3, turn-off variant 1) |  |  | 99 nM | 1220 nM | 96.7 nM | 
AAUUUUUAUGUAAGGAUAUAAGUUUGGAAACGGGCUUAGAAGGUACAUGAGGAUCACCCAUGUAUAAUGUGCGU [-20.6, -20.4 kcal, 32% A] (Eterna round: R97, puzzle: Brourd's mod of Exclusion 4) | 52 nM | 23.2 nM |  |  |  | 
UUUCGGCAUGUAGGAUAUGGGUCCGAUUAGGAUUUAGAAGGACAUGAGGAUCACCCAUGUGCAUUUAAUUGGUCAUUACCGUUU [EXclNG1-LROPPY09] (Eterna round: R96, puzzle: Exclusion NG 1) | 86.7 nM | 66 nM |  |  |  | 47.8 nM
CAGGAUAGAGGAUAUACAUAGAUACAGAUUCGUGUGAUCCUACAUGAGGAUCACCCAUGUAGAAGGCUAUCCUG [Fiskers Ex 2 - 23] (puzzle: Exclusion 2) |  |  |  | 210 nM |  | 
GAAAACGCUGAGGAUAUUUCUGAUCAAAGCAGCAAAGAAGGCAGCACAUGAGGAUCACCCAUGUGGUCUUCAAA [jl-ex6-4.03 ViennaUCT mod] (Eterna round: R97, puzzle: Exclusion 6) | 907 nM | 32.1 nM |  |  |  | 
ACAUGAGGAUCACCCAUGUACAGGGUUUAGUUUCAUCGUUUGAAGGAUAUACUCCGUUAGUUGUCGUAGAAGGUCACAUUUUGG [JR_ExcNG3_Sub006] (Eterna round: R96, puzzle: Exclusion NG 3) | 189 nM | 145 nM |  |  |  | 120 nM
GAUGCCAGAGGAUAUGCAUCGGGUUCCUGGUUAAGGCUGCCACAUGAGGAUCACCCAUGUAGAAGGCUGCCGUC [EX2 B.5] (Eterna round: R97, puzzle: Exclusion 2) | 17.4 nM | 9.94 nM |  |  |  | 
CCGUGGCAAGGAUAUACGUAGGAGAGGAAGGCAAGAGAAGGACAUGAGGAUCACCCAUGUAGAAGGUGCAGAUC [JR_Exclu2_Sub030] (puzzle: Exclusion 2) |  |  |  | 48.3 nM |  | 

— the supplement of paper PMC9170038
